Measured values as given in patent US9701733B2, “Maspin-based treatment of cancer” (Northwestern University, priority 2011, dated 2017).
Numbering of substitutions follows the chain as printed. Names and notes keep the numbering of the source. “Also recorded” adds a separate entry of the source.

B1: single mutant (E201K): GST-maspin point mutant E201K (protein, UniProt P36952 1-375, looked up, variant E201K)
Serpin B5: MDALQLANSAFAVDLFKQLCEKEPLGNVLFSPICLSTSLSLAQVGAKGDTANEIGQVLHFENVKDVPFGFQTVTSDVNKLSSFYSLKLIKRLYVDKSLNLSTEFISSTKRPYAKELETVDFKDKLEETKGQINNSIKDLTDGHFENILADNSVNDQTKILVVNAAYFVGKWMKKFSESETKECPFRVNKTDTKPVQMMNMKATFCMGNIDSINCKIIELPFQNKHLSMFILLPKDVEDESTGLEKIEKQLNSESLSQWTNPSTMANAKVKLSIPKFKVEKMIDPKACLENLGLKHIFSEDTSDFSGMSETKGVALSNVIHKVCLEITEDGGDSIEVPGARILQHKDELNADHPFIYIIRHNKTRNIIFFGKFCSP
modifications: GST tag
B2: double mutant (K268E, K270E): GST-maspin mutant K268E, K270E (protein, UniProt P36952 1-375, looked up, variant K268E K270E)
Serpin B5: B1 Serpin B5 with K201E, K268E, K270E
modifications: GST fusion
B3: triple mutant (E201K, K268E, K270E): GST-maspin mutant E201K, K268E, K270E (protein, UniProt P36952 1-375, looked up, variant E201K K268E K270E)
Serpin B5: B1 Serpin B5 with K268E, K270E
modifications: GST fusion
B4: GST-maspin: Glutathione S-transferase (GST)-tagged recombinant wild-type maspin; 125I-labeled for binding assay (protein, UniProt P36952 1-375, looked up)
Serpin B5: B1 Serpin B5 with K201E
modifications: GST tag; 125I label

What was measured:
[1] = system: MCF10A cells; assay: Adhesion assay of MCF10A cells on self-deposited (endogenous) matrix; type: cell-based, human; settings: for effect of maspin-derived competitive peptide on MCF10A cell adhesion: cells pre-incubated with peptide, adhesion measured after 30 min, self-deposited matrix; for effect of GST-maspin mutant on MCF10A cell adhesion: compared to wild-type GST-maspin; for effect of GST-maspin mutant on MCF10A cell adhesion / reduction of MCF10A cell adhesion compared to WT GST-maspin: endogenous matrix; for reduction of MCF10A cell adhesion compared to WT GST-maspin: recombinant protein
Protocol: Assays utilizing endogenous ECM proteins generated by MCF10A cells were performed as previously described (Langhofer et al. (1993) J Cell Sci 105 (Pt 3), 753-764; herein incorporated by reference in its entirety). MCF10A cells were plated in 96-well dishes and allowed to reach confluence. Cells were washed with PBS and treated for 5 min with fresh sterile 20 mM NH4OH, followed by extensive water washes. Wells were blocked with heat-denatured BSA (10 mg/ml) for 1 hr at room temperature. Subconfluent cultures were trypsinized, washed with 37° C. serum-free DMEM/F12 medium, and incubated with either antibodies or recombinant proteins (500 nM) for 30 min at 37° C. (when assaying endogenous maspin enzyme-free cell dissociation solution was used instead of trypsin). In all assays, 2.0×10^4 cells were plated in triplicates and allowed to adhere for 30 min at 37° C. The GST protein was used as a control. Wells were washed with 37° C. serum-free DMEM/F12 and adhered cells were fixed with 5% gluteraldehyde and stained with crystal violet dye. Cell adhesion was determined by the reading at 590 nm subtracted by the blank value (determined by BSA-coated wells, 5% of maximal cell adhesion). Cell adhesion was plotted as percentage of the corresponding control value. Cell surface stripping of uPA from uPAR was conducted as previously described (Stoppelli et al. (1986) Cell 45, 675-684; herein incorporated by reference in its entirety). Subconfluent cultures were washed twice with DMEM/F12 supplemented with 20 mM HEPES and 1 mg/ml BSA. Then, cells were incubated with 50 mM glycine-HCl (pH 3.0) with 100 mM NaCl at 25° C. for 2 min and the reaction was halted by neutralizing with 500 mM HEPES (pH 7.4). In the function blocking studies, cells were first incubated with the function blocking antiuPAR or control rabbit IgG for 10 min, uPA and recombinant GST-maspin was added for another 20 min.

[2] = system: HUVEC endothelial cells; assay: HUVEC tube formation assay on MatriGel; type: cell-based; settings: for effect on HUVEC tube formation: 1.0 uM; for potency on tube angiogenesis: compared to the G-Helix peptide or GST-maspin (FIG. 7)
Protocol: HUVECs were plated on MatriGel for tube formation assay. Various peptides were tested for the potency on tube angiogenesis.
HUVEC endothelial cells were used to test the effect of synthetic maspin peptides on HUVEC tube formation assay in cell culture systems. Random peptide was used as a negative control and maspin G-helix peptide as a positive control. G-Helix was previously found to be effective in inhibiting endothelial cell migration, thereby mimicking maspin effect against angiogenesis. […] At 1.0 uM, G-helix was not effective.

[3] = system: WT MEF cell surface; assay: 125I-GST-maspin binding to wild type MEF cell surface; parameters: species or system mouse; settings: WT MEFs; 4° C., 90 min; <500 nM
Protocol: (§1) Bacterial recombinant GST-maspin was labeled with ^125I as described previously (Conlon, M. (2002) Preparation of ^125I-Labeled Peptides and Proteins with High Specific Activity using IODO-GEN, 2nd Edition Ed. The Protein Protocols Handbook (Walker, J. M., Ed.), Humana Press Inc, Totowa, N.J.; herein incorporated by reference in its entirety). Wild type (WT) and uPAR−/− mouse embryo fibroblasts (MEFs) (5.0×10^4 cells) were cultured in DMEM with 10% FBS on 96-well plate overnight. Cells were chilled on ice for 30 min, washed three times with ice-cold DMEM, and then blocked on ice for 60 min using blocking buffer (DMEM containing 5% heat inactivated BSA). MEFs were incubated with increasing concentrations of ^125I-GST-maspin in blocking buffer at 4° C. for 90 min. After incubation, unbound ^125I-GST-maspin protein was removed by washing three times with blocking buffer. Specific ^125I-GST-maspin binding was determined by subtracting the detected radioactivity by the nonspecific binding (determined in the presence of a 50-fold excess of non-labeled GST-maspin). In the studies evaluating the uPA/uPAR interactions, ^125I-GST-maspin was treated with ABS4A and S-20 (Santa Cruz) antibodies, which block the RCL and N-terminal domains, prior to adding to WT MEF cells. In one set, WT MEF cells were treated with an anti-mouse uPAR antibody (R&D), which blocks uPA binding to uPAR. […]

[4] = system: uPAR-/- MEFs; assay: 125I-GST-maspin binding to uPAR-/- MEF cell surface; parameters: species or system mouse; settings: 4° C., 90 min, <500 nM
Protocol: as §1

Molecule | effect of maspin-derived competitive peptide on MCF10A cell adhesion [1] | effect of GST-maspin mutant on MCF10A cell adhesion [1] | reduction of MCF10A cell adhesion compared to WT GST-maspin [1] | further results
NPSTMANAKVKLSIPK (listed as Homo sapiens) [peptide 260-275] | inhibited cell adhesion |  |  | effect of maspin-derived competitive peptide on MCF10A cell adhesion ([1]; listed as 260-275 peptide): reduced
STANAKVKLSIP (listed as Homo sapiens) [peptide X, synthetic maspin mimetic peptide] |  |  |  | effect on HUVEC tube formation [2]: highly effective; potency on tube angiogenesis [2]: highly potent
TDTKPVQMMNMEATFCMGNIDSI (listed as Homo sapiens) [190-211] | inhibited cell adhesion; also recorded: competed with GST-maspin |  |  | 
peptide 181-202: competitive peptide corresponding to maspin amino acid residues 181-202 (KECPFRVNKTDTKPVQMMNMEA; UniProt P36952 181-202, looked up, fragment) | inhibited cell adhesion; also recorded: competed with GST-maspin |  |  | 
TANAEVKLSIPK (listed as Homo sapiens) [peptide Y, synthetic maspin mimetic peptide] |  |  |  | effect on HUVEC tube formation [2]: highly effective; potency on tube angiogenesis [2]: highly potent
peptide 169-189: peptide corresponding to maspin residues 169-189 (s3C) (GKWMKKFSESETKECPFRVNK; UniProt P36952 169-189, looked up, fragment) | not s3C (peptide 169-189) was important |  |  | 
B1 |  | inhibited cell adhesion; also recorded: significantly reduced | 16% | 
B2 |  | inhibited cell adhesion | 17% | effect of GST-maspin mutant on MCF10A cell adhesion ([1]; listed as double mutant GST maspin (K268E, K270E)): reduced
B3 |  | inhibited cell adhesion | approximately 28% | 
B4 |  |  |  | specific 125I-GST-maspin binding to cell surface [3]: displayed specific 125I-GST-maspin binding; specific 125I-GST-maspin binding to cell surface [4]: absent of any specific 125I-GST-maspin binding; maspin-induced MCF10A cell adhesion after stripping endogenous uPA ([1]; endogenous uPA acid-stripped before GST-maspin): substantially blocks; maspin-mediated adhesion of uPA-stripped MCF10A cells after addition of exogenous uPA ([1]; uPA acid-stripped, exogenous uPA 800 nM): 154.06 % of GST control
